From patent publication US20160264649A1

Columns and labels:
Experiment in all cases: cell-based or functional assay
[1] = molecular target: HIV-1 92RW020 Env (HIV-1)
[2] = molecular target: HIV-1 MGRM-A-005 Env (HIV-1)
[3] = molecular target: HIV-1 94UG103 Env (HIV-1)
[4] = molecular target: HIV-1 MGRM-A-010 Env (HIV-1)
HIV-1 VLGCA1 Env (HIV-1) = molecular target: HIV-1 VLGCA1 Env (HIV-1)
[5] = molecular target: HIV-1 92RW024 Env (HIV-1)
[6] = molecular target: HIV-1 MGRM-A-006 Env (HIV-1)
[7] = molecular target: HIV-1 92RW021 Env (HIV-1)
[8] = molecular target: HIV-1 92RW009 Env (HIV-1)
[9] = molecular target: HIV-1 MGRM-A-003 Env (HIV-1)
[10] = molecular target: HIV-1 MGRM-A-014 Env (HIV-1)
[11] = molecular target: HIV-1 94KE105 Env (HIV-1)
[12] = molecular target: HIV-1 MGRM-A-002 Env (HIV-1)
[13] = molecular target: HIV-1 92UG037 Env (HIV-1)
[14] = molecular target: HIV-1 MGRM-A-001 Env (HIV-1)
[15] = molecular target: HIV-1 93UG077 Env (HIV-1)
[16] = molecular target: HIV-1 MGRM-A-013 Env (HIV-1)
[17] = molecular target: HIV-1 92RW026 Env (HIV-1)
[18] = molecular target: HIV-1 MGRM-A-011 Env (HIV-1)
[19] = molecular target: HIV-1 93RW029 Env (HIV-1)
[20] = molecular target: HIV-1 92RW008 Env (HIV-1)
[21] = molecular target: HIV-1 Env of isolate MGRM-AE-004 (subtype AE) (HIV-1)
[22] = molecular target: HIV-1 Env of isolate MGRM-D-028 (subtype D) (HIV-1)
[23] = molecular target: HIV-1 Env of isolate MGRM-D-014 (subtype D) (HIV-1)
[24] = molecular target: HIV-1 Env of isolate MGRM-D-003 (subtype D) (HIV-1)
[25] = molecular target: HIV-1 Env of isolate TRO.11 (subtype B) (HIV-1)
[26] = molecular target: HIV-1 Env of isolate 92UG046 (subtype D) (HIV-1)
[27] = molecular target: HIV-1 Env of isolate MGRM-F1-010 (subtype F) (HIV-1)
[28] = molecular target: HIV-1 Env of isolate MGRM-F1-006 (subtype F) (HIV-1)
[29] = molecular target: HIV-1 Env of isolate MG RM-C-022 (subtype C) (HIV-1)
[30] = molecular target: HIV-1 Env of isolate MGRM-AE-006 (subtype AE) (HIV-1)
[31] = molecular target: HIV-1 Env of isolate 92WR020 (subtype A) (HIV-1)
[32] = molecular target: HIV-1 Env of isolate 98CN009 (subtype CRF07_BC) (HIV-1)
[33] = molecular target: HIV-1 Env of isolate JRCSF (subtype B) (HIV-1) (UniProt P20871)
[34] = molecular target: HIV-1 Env of isolate MGRM-D-020 (subtype D) (HIV-1)
[35] = molecular target: HIV-1 Env of isolate MGRM-Chronic-B-008 (subtype B) (HIV-1)
[36] = molecular target: HIV-1 Env of isolate MGRM-D-012 (subtype D) (HIV-1)
[37] = molecular target: HIV-1 Env of isolate 93IN905 (subtype C) (HIV-1)
[38] = molecular target: HIV-1 Env of isolate MGRM-D-011 (subtype D) (HIV-1)
[39] = molecular target: HIV-1 MGRM-F1-013 Env (HIV-1)
[40] = molecular target: HIV-1 Env of isolate MGRM-Chronic-B-023 (subtype B) (HIV-1)
[41] = molecular target: HIV-1 Env of isolate MGRM-AE-003 (subtype AE) (HIV-1)
[42] = molecular target: HIV-1 Env of isolate MGRM-D-016 (subtype D) (HIV-1)
[43] = molecular target: HIV-1 Env of pseudovirus isolate MGRM-G-006 (subtype G) (HIV-1)
[44] = molecular target: HIV-1 Env of pseudovirus isolate MGRM-G-014 (subtype G) (HIV-1)
[45] = molecular target: HIV-1 Env of isolate MGRM-D-019 (subtype D) (HIV-1)
[46] = molecular target: HIV-1 Env of isolate 92WR024 (subtype A) (HIV-1)
[47] = molecular target: HIV-1 Env of isolate 92UG114 (subtype D) (HIV-1)
[48] = molecular target: HIV-1 Env of isolate MGRM-Chronic-B-024 (subtype B) (HIV-1)
[49] = molecular target: HIV-1 Env of isolate 94UG103 (subtype A) (HIV-1)

1443_C16 (PG16) (TCN-116) (antibody), sequence (VH): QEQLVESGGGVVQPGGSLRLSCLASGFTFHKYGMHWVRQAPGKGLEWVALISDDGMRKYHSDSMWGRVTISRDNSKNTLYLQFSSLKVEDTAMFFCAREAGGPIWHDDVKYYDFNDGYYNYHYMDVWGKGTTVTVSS
1443_C16 (PG16) (TCN-116) (antibody), sequence (VL): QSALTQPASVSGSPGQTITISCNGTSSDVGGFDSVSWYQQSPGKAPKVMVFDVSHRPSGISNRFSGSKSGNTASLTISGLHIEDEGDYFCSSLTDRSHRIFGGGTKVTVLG

For 1443_C16 (PG16) (TCN-116) (antibody), the neutralization IC50 [1] was 0.28 µg/mL, the neutralization IC50 [2] was 0.09 µg/mL and the neutralization IC50 [3] was 0.04 µg/mL. The neutralization IC50 [4] was 0.004 µg/mL, the neutralization IC50 (HIV-1 VLGCA1 Env (HIV-1)) was 0.18 µg/mL and the neutralization IC50 [5] was 0.08 µg/mL. For the same substance, the neutralization IC50 [6] was over 50 µg/mL, the neutralization IC50 [7] was 0.11 µg/mL and the neutralization IC50 [8] was 0.11 µg/mL. For the same substance, the neutralization IC50 [9] was 2.65 µg/mL, the neutralization IC50 [10] was 20.3 µg/mL and the neutralization IC50 [11] was 6.13 µg/mL. For the same substance, the neutralization IC50 [12] was 0.004 µg/mL, the neutralization IC50 [13] was 0.01 µg/mL and the neutralization IC50 [14] was over 50 µg/mL. It also gave a neutralization IC50 [15] of over 50 µg/mL, a neutralization IC50 [16] of 0.09 µg/mL and a neutralization IC50 [17] of 0.03 µg/mL. The neutralization IC50 [18] was 0.24 µg/mL, the neutralization IC50 [19] was 3.83 µg/mL and the neutralization IC50 [20] was 0.002 µg/mL.
1496_C09 (PG9) (TCN-109) (antibody) showed an IC50 (pseudovirus neutralization) [21] of 0.009 µg/mL, an IC50 (pseudovirus neutralization) [22] of 20.2 µg/mL and an IC50 (pseudovirus neutralization) [23] of 0.023 µg/mL. The IC50 (pseudovirus neutralization) [24] was 0.033 µg/mL, the IC50 (µg/mL), pseudovirus neutralization [25] was 16.9 µg/mL and the IC50 (neutralization) [26] was 1.86 µg/mL. For the same substance, the IC50 (pseudovirus neutralization) [27] was 0.012 µg/mL, the IC50 (pseudovirus neutralization) [28] was 7.25 µg/mL and the IC50 (µg/mL), pseudovirus neutralization [29] was 0.346 µg/mL. It also gave an IC50 (pseudovirus neutralization) [30] of 0.063 µg/mL, an IC50 (pseudovirus neutralization) [31] of 0.141 µg/mL and an IC50 (neutralization) [32] of 0.371 µg/mL. It also gave an IC50 (µg/mL), pseudovirus neutralization [33] of 0.003 µg/mL, an IC50 (pseudovirus neutralization) [34] of 1.67 µg/mL and an IC50 [35] of 8.78 µg/mL. The IC50 (pseudovirus neutralization) [36] was 16.2 µg/mL, the IC50 (µg/mL), pseudovirus neutralization [37] was 0.035 µg/mL and the IC50 (pseudovirus neutralization) [38] was 0.071 µg/mL. For the same substance, the IC50 (pseudovirus neutralization) [39] was 0.56 µg/mL, the IC50 [40] was 0.027 µg/mL and the IC50 (pseudovirus neutralization) [41] was 0.044 µg/mL. For the same substance, the IC50 (pseudovirus neutralization) [42] was 0.098 µg/mL, the IC50 [43] was 1.98 µg/mL and the IC50 [44] was 16.5 µg/mL. It also gave an IC50 (pseudovirus neutralization) [45] of 0.038 µg/mL, an IC50 (pseudovirus neutralization) [46] of 0.258 µg/mL and an IC50 (pseudovirus neutralization) [47] of 40.6 µg/mL. For the same substance, the IC50 [48] was 0.222 µg/mL, the IC50 (pseudovirus neutralization) [49] was 0.34 µg/mL and the neutralization IC50 [1] was 0.08 µg/mL. It also gave a neutralization IC50 [3] of 0.24 µg/mL, a neutralization IC50 (HIV-1 VLGCA1 Env (HIV-1)) of 0.07 µg/mL and a neutralization IC50 [5] of 0.18 µg/mL. It also gave a neutralization IC50 [7] of 0.05 µg/mL, a neutralization IC50 [8] of 0.03 µg/mL and a neutralization IC50 [9] of 0.65 µg/mL. For the same substance, the neutralization IC50 [10] was 0.62 µg/mL, the neutralization IC50 [11] was 29.6 µg/mL and the neutralization IC50 [16] was 0.16 µg/mL. The neutralization IC50 [17] was 0.27 µg/mL, the neutralization IC50 [19] was 1.19 µg/mL and the neutralization IC50 [20] was 0.01 µg/mL.
PGV04 (antibody) gave an IC50 (pseudovirus neutralization) [21] of 0.183 µg/mL, an IC50 (pseudovirus neutralization) [22] of 1.01 µg/mL and an IC50 (pseudovirus neutralization) [23] of 0.194 µg/mL. It also gave an IC50 (pseudovirus neutralization) [24] of over 50 µg/mL, an IC50 (µg/mL), pseudovirus neutralization [25] of 0.121 µg/mL and an IC50 (neutralization) [26] of 22.4 µg/mL. The IC50 (pseudovirus neutralization) [27] was 0.184 µg/mL, the IC50 (pseudovirus neutralization) [28] was over 50 µg/mL and the IC50 (µg/mL), pseudovirus neutralization [29] was 18.3 µg/mL. For the same substance, the IC50 (pseudovirus neutralization) [30] was over 50 µg/mL, the IC50 (pseudovirus neutralization) [31] was 0.055 µg/mL and the IC50 (neutralization) [32] was 0.0125 µg/mL. For the same substance, the IC50 (µg/mL), pseudovirus neutralization [33] was 0.078 µg/mL, the IC50 (pseudovirus neutralization) [34] was 0.097 µg/mL and the IC50 [35] was 0.166 µg/mL. It also gave an IC50 (pseudovirus neutralization) [36] of 0.125 µg/mL, an IC50 (µg/mL), pseudovirus neutralization [37] of 0.332 µg/mL and an IC50 (pseudovirus neutralization) [38] of 0.025 µg/mL. The IC50 [40] was 0.139 µg/mL, the IC50 (pseudovirus neutralization) [41] was 6.4 µg/mL and the IC50 (pseudovirus neutralization) [42] was 0.201 µg/mL. For the same substance, the IC50 [43] was 0.083 µg/mL, the IC50 [44] was 0.056 µg/mL and the IC50 (pseudovirus neutralization) [45] was 0.35 µg/mL. For the same substance, the IC50 (pseudovirus neutralization) [46] was 0.31 µg/mL, the IC50 (pseudovirus neutralization) [47] was 0.461 µg/mL and the IC50 [48] was 2.52 µg/mL. The IC50 (pseudovirus neutralization) [49] was 0.202 µg/mL.
With VRC01 (antibody) the IC50 (pseudovirus neutralization) [21] was 0.187 µg/mL, the IC50 (pseudovirus neutralization) [22] was 0.377 µg/mL and the IC50 (pseudovirus neutralization) [23] was 0.332 µg/mL. For the same substance, the IC50 (pseudovirus neutralization) [24] was 2.06 µg/mL, the IC50 [25] was 0.186 µg/mL and the IC50 (neutralization) [26] was 12.7 µg/mL. The IC50 (pseudovirus neutralization) [27] was 0.097 µg/mL, the IC50 (pseudovirus neutralization) [28] was 2.86 µg/mL and the IC50 [29] was 13 µg/mL. For the same substance, the IC50 (pseudovirus neutralization) [30] was 4.65 µg/mL, the IC50 (pseudovirus neutralization) [31] was 0.13 µg/mL and the IC50 (neutralization) [32] was 0.346 µg/mL. It also gave an IC50 [33] of 0.164 µg/mL, an IC50 (pseudovirus neutralization) [34] of 0.192 µg/mL and an IC50 [35] of 0.155 µg/mL. The IC50 (pseudovirus neutralization) [36] was 0.216 µg/mL, the IC50 [37] was 0.138 µg/mL and the IC50 (pseudovirus neutralization) [38] was 0.075 µg/mL. It also gave an IC50 [40] of 0.275 µg/mL, an IC50 (pseudovirus neutralization) [41] of 0.685 µg/mL and an IC50 (pseudovirus neutralization) [42] of 0.452 µg/mL. The IC50 [43] was 0.055 µg/mL, the IC50 [44] was 0.056 µg/mL and the IC50 (pseudovirus neutralization) [45] was 0.119 µg/mL. For the same substance, the IC50 (pseudovirus neutralization) [46] was 0.327 µg/mL, the IC50 (pseudovirus neutralization) [47] was 0.33 µg/mL and the IC50 [48] was 0.377 µg/mL. The IC50 (pseudovirus neutralization) [49] was 0.285 µg/mL.
